From article PMC6555819, “Comprehensive study of nuclear receptor DNA binding provides a revised framework for understanding receptor specificity”

B1: NRC3_random_hg19_258_o1 (dsDNA)
DNA 1: GCGTAAGATGGCAGGTGCCCAGAGCTAAGCTTTGATGCGATTGACAGCGTAGAATGAAGG
DNA 2: CCTTCATTCTACGCTGTCAATCGCATCAAAGCTTAGCTCTGGGCACCTGCCATCTTACGC
B2: NRC3_random_hg19_287_o1 (dsDNA)
DNA 1: GCTCACTCAGAAGAGCAGAGCGACAGTGAATCTGAGGCGATTGACAGCGTAGAATGAAGG
DNA 2: CCTTCATTCTACGCTGTCAATCGCCTCAGATTCACTGTCGCTCTGCTCTTCTGAGTGAGC
B3: NRC3_wobSeed134_DR5_G11T_o1 (dsDNA)
DNA 1: GCGCTGCTAGTTCAACTGATGGTCAGCTAAAGCTCGGCGATTGACAGCGTAGAATGAAGG
DNA 2: CCTTCATTCTACGCTGTCAATCGCCGAGCTTTAGCTGACCATCAGTTGAACTAGCAGCGC
B4: NRC3_random_hg19_261_o1 (dsDNA)
DNA 1: GCCTGGCTCCAGACAGACAAGAAGACTCCTTCAGTCGCGATTGACAGCGTAGAATGAAGG
DNA 2: CCTTCATTCTACGCTGTCAATCGCGACTGAAGGAGTCTTCTTGTCTGTCTGGAGCCAGGC
B5: NRC3_wobSeed21_DR0_A19C_o1 (dsDNA)
DNA 1: GCCGTCAAAGTTCAAGGTCACGTAACAGAAAGCAGCGCGATTGACAGCGTAGAATGAAGG
DNA 2: CCTTCATTCTACGCTGTCAATCGCGCTGCTTTCTGTTACGTGACCTTGAACTTTGACGGC
B6: NRC3_random_hg19_272_o1 (dsDNA)
DNA 1: GCGTGCATTTGCTCCCAGAGGCTCTGCTCTTGCCCTGCGATTGACAGCGTAGAATGAAGG
DNA 2: CCTTCATTCTACGCTGTCAATCGCAGGGCAAGAGCAGAGCCTCTGGGAGCAAATGCACGC
B7: NRC3_random_hg19_203_o1 (dsDNA)
DNA 1: GCGATGTAACAATGCAGGGTGGTCTTGGTCTTTGGCGCGATTGACAGCGTAGAATGAAGG
DNA 2: CCTTCATTCTACGCTGTCAATCGCGCCAAAGACCAAGACCACCCTGCATTGTTACATCGC
B8: NRC3_random_hg19_256_o1 (dsDNA)
DNA 1: GCAGGAGAAACCCACGCTGGTGTCATCACAGGTTCAGCGATTGACAGCGTAGAATGAAGG
DNA 2: CCTTCATTCTACGCTGTCAATCGCTGAACCTGTGATGACACCAGCGTGGGTTTCTCCTGC
B9: NRC3_random_hg19_430_o1 (dsDNA)
DNA 1: GCGAAGGACCTTTAGATCCTGAGACAGAACTTAGGCGCGATTGACAGCGTAGAATGAAGG
DNA 2: CCTTCATTCTACGCTGTCAATCGCGCCTAAGTTCTGTCTCAGGATCTAAAGGTCCTTCGC
B10: NRC3_random_hg19_255_o1 (dsDNA)
DNA 1: GCGGAGGGCAGGCAGGCCTGGAGGAGCATGTGGTGTGCGATTGACAGCGTAGAATGAAGG
DNA 2: CCTTCATTCTACGCTGTCAATCGCACACCACATGCTCCTCCAGGCCTGCCTGCCCTCCGC
B11: NRC3_random_hg19_368_o1 (dsDNA)
DNA 1: GCTAAGAAACTCAGTCAACATGATATCTATGGCTAAGCGATTGACAGCGTAGAATGAAGG
DNA 2: CCTTCATTCTACGCTGTCAATCGCTTAGCCATAGATATCATGTTGACTGAGTTTCTTAGC
B12: NRC3_random_hg19_69_o1 (dsDNA)
DNA 1: GCCCAGGTGGCAGGATCCCTGCATCTGGTTTCCTCAGCGATTGACAGCGTAGAATGAAGG
DNA 2: CCTTCATTCTACGCTGTCAATCGCTGAGGAAACCAGATGCAGGGATCCTGCCACCTGGGC
B13: NRC3_random_hg19_104_o1 (dsDNA)
DNA 1: GCTGTAATCACGGTGTGTGAACTACTCATATCGAGTGCGATTGACAGCGTAGAATGAAGG
DNA 2: CCTTCATTCTACGCTGTCAATCGCACTCGATATGAGTAGTTCACACACCGTGATTACAGC
B14: NRC3_random_hg19_145_o1 (dsDNA)
DNA 1: GCGCCCAGTAGTTTGAGACCAGCCTGGACAACATGGGCGATTGACAGCGTAGAATGAAGG
DNA 2: CCTTCATTCTACGCTGTCAATCGCCCATGTTGTCCAGGCTGGTCTCAAACTACTGGGCGC
B15: NRC3_random_hg19_57_o1 (dsDNA)
DNA 1: GCTAGCTGAGACTACATGCCACCATGCCTGGCTAATGCGATTGACAGCGTAGAATGAAGG
DNA 2: CCTTCATTCTACGCTGTCAATCGCATTAGCCAGGCATGGTGGCATGTAGTCTCAGCTAGC
B16: NRC3_random_hg19_129_o1 (dsDNA)
DNA 1: GCGAAGTTTAGAAACTTGCCCTAAGTCACCTAACTAGCGATTGACAGCGTAGAATGAAGG
DNA 2: CCTTCATTCTACGCTGTCAATCGCTAGTTAGGTGACTTAGGGCAAGTTTCTAAACTTCGC
B17: NRC3_random_hg19_311_o1 (dsDNA)
DNA 1: GCTCACTTATGAAGCTTAGGTTGGCTGGATATGAAAGCGATTGACAGCGTAGAATGAAGG
DNA 2: CCTTCATTCTACGCTGTCAATCGCTTTCATATCCAGCCAACCTAAGCTTCATAAGTGAGC
B18: NRC3_random_hg19_94_o1 (dsDNA)
DNA 1: GCACTATCTTGTGTCTCATCTGAGACATAGATGGATGCGATTGACAGCGTAGAATGAAGG
DNA 2: CCTTCATTCTACGCTGTCAATCGCATCCATCTATGTCTCAGATGAGACACAAGATAGTGC
B19: NRC3_random_hg19_234_o1 (dsDNA)
DNA 1: GCTAACTGGCACCTTTGGGAACTACATGTTTCCTGTGCGATTGACAGCGTAGAATGAAGG
DNA 2: CCTTCATTCTACGCTGTCAATCGCACAGGAAACATGTAGTTCCCAAAGGTGCCAGTTAGC
B20: NRC3_random_hg19_163_o1 (dsDNA)
DNA 1: GCCAGTGAGCCGAGATCATGCCACTGCACTCCAGCCGCGATTGACAGCGTAGAATGAAGG
DNA 2: CCTTCATTCTACGCTGTCAATCGCGGCTGGAGTGCAGTGGCATGATCTCGGCTCACTGGC
B21: NRC3_random_hg19_431_o1 (dsDNA)
DNA 1: GCAGCCATATGCAAATGAGTACATCCTGTGTGATTCGCGATTGACAGCGTAGAATGAAGG
DNA 2: CCTTCATTCTACGCTGTCAATCGCGAATCACACAGGATGTACTCATTTGCATATGGCTGC
B22: NRC3_wobSeed42_DR1_A6T_o1 (dsDNA)
DNA 1: GCTATTCAGGGTCAAAGGCCAGAGTACGAATGTCGAGCGATTGACAGCGTAGAATGAAGG
DNA 2: CCTTCATTCTACGCTGTCAATCGCTCGACATTCGTACTCTGGCCTTTGACCCTGAATAGC
B23: NRC3_random_hg19_442_o1 (dsDNA)
DNA 1: GCTACGGAGTGCTGATCAGTCAGGTTGGAGATGGAAGCGATTGACAGCGTAGAATGAAGG
DNA 2: CCTTCATTCTACGCTGTCAATCGCTTCCATCTCCAACCTGACTGATCAGCACTCCGTAGC
B24: NRC3_random_hg19_497_o1 (dsDNA)
DNA 1: GCGGGTTTAGAGATGATTTGCTGTGACAGTGTTGAGGCGATTGACAGCGTAGAATGAAGG
DNA 2: CCTTCATTCTACGCTGTCAATCGCCTCAACACTGTCACAGCAAATCATCTCTAAACCCGC
B25: NRC3_wobSeed29_DR1_G9A_o1 (dsDNA)
DNA 1: GCGCTTACAGGTCAAAGGTTATAGCATGAATAGAATGCGATTGACAGCGTAGAATGAAGG
DNA 2: CCTTCATTCTACGCTGTCAATCGCATTCTATTCATGCTATAACCTTTGACCTGTAAGCGC
B26: NRC3_random_hg19_425_o1 (dsDNA)
DNA 1: GCCTGTTAGGTTGATTCTATGTCTTGGCTATTGTGTGCGATTGACAGCGTAGAATGAAGG
DNA 2: CCTTCATTCTACGCTGTCAATCGCACACAATAGCCAAGACATAGAATCAACCTAACAGGC
B27: NRC3_wobSeed120_DR4_T8A_o1 (dsDNA)
DNA 1: GCCCGAGAAGGTTACGAGGGGGCATTCAGTGCGAATGCGATTGACAGCGTAGAATGAAGG
DNA 2: CCTTCATTCTACGCTGTCAATCGCATTCGCACTGAATGCCCCCTCGTAACCTTCTCGGGC

molecular target: RXRa (Homo sapiens, UniProt P19793); test: no ligand; PBM; 180 nM; PBS pH 7.4, 2% milk, 0.02% Triton X-100, 1 mM DTT, BSA, 0.4 mg/ml salmon testes DNA; settings: tags: His cleaved; chain copies: 2; label: surface-attached array probe
Sequence (P19793 whole entry): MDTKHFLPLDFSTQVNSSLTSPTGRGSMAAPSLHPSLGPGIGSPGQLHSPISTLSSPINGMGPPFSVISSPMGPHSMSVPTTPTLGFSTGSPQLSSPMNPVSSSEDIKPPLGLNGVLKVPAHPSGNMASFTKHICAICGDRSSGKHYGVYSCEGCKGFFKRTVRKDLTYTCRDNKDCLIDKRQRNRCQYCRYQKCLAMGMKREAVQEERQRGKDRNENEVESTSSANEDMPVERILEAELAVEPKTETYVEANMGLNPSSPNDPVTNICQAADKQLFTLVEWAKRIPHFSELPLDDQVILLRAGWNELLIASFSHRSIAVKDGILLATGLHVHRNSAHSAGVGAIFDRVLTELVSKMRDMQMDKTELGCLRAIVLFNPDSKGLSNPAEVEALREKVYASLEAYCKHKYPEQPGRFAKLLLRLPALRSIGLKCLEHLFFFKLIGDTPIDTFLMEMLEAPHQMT

Binder	binding signal
B1	-0.61 PBM z-score against 500 random probes
B2	0.27 PBM z-score against 500 random probes
B3	0.29 PBM z-score against 500 random probes
B4	-0.45 PBM z-score against 500 random probes

molecular target: RARb:RXRa (Homo sapiens, UniProt P10826;P19793 full;full); test: no ligand; PBM; 270 nM : 90 nM RXRa; PBS pH 7.4, 2% milk, 0.02% Triton X-100, 1 mM DTT, BSA, 0.4 mg/ml salmon testes DNA; settings: tags: His kept;His cleaved; copies: 1;1; label: surface-attached array probe
Outline: (§1)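 Antibodies against each partner of ligand-free nuclear receptor dimers (one per run) detected binding on custom Agilent 4×180K protein-binding microarrays after 1 h incubation. The double-stranded probes had 34-nt variable regions carrying direct-repeat seeds, single-nucleotide variants, half-site ablations and random human genomic background sequences. Binding z-scores, from regression-normalized fluorescence, use the random background probes as reference.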

RARb:RXRa, sequence (P10826 whole entry, chain 1 of 2): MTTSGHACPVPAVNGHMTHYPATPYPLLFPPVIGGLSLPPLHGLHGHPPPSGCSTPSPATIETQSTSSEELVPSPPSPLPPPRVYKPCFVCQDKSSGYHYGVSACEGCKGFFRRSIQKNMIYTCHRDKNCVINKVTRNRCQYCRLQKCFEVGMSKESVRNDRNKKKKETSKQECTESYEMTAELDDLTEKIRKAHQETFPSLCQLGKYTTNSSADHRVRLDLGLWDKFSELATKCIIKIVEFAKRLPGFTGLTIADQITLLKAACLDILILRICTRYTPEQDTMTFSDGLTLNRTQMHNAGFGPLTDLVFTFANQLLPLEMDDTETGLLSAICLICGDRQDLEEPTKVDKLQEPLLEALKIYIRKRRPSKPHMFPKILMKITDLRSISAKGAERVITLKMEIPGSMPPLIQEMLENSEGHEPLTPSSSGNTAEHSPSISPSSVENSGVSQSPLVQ
RARb:RXRa, sequence (P19793 whole entry, chain 2 of 2): as the sequence (P19793 whole entry) above

Binder	binding signal
B2	-0.16 PBM z-score against 500 random probes
B5	5.98 PBM z-score against 500 random probes
B6	-0.53 PBM z-score against 500 random probes

molecular target: LXRa:RXRa (Homo sapiens, UniProt Q13133;P19793 full;full); test: as above; settings: tags: His kept;His cleaved; copies: 1;1; label: surface-attached array probe
Outline: as §1

LXRa:RXRa, sequence (Q13133 whole entry, chain 1 of 2): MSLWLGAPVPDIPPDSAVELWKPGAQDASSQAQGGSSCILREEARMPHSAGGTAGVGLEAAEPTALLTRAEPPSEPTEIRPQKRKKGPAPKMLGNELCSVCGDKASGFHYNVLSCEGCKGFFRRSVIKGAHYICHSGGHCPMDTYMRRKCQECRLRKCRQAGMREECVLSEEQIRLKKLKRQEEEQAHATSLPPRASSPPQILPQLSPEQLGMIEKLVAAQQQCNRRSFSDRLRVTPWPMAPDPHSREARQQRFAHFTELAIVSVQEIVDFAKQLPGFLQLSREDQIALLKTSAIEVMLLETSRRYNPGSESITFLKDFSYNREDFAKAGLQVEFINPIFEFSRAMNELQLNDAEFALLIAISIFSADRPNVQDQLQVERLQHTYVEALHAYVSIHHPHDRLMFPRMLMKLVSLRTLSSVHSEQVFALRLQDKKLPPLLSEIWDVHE
LXRa:RXRa, sequence (P19793 whole entry, chain 2 of 2): as the sequence (P19793 whole entry) above

Binder	binding signal
B7	-0.49 PBM z-score against 500 random probes
B8	-0.16 PBM z-score against 500 random probes
B1	-1 PBM z-score against 500 random probes
B9	-0.59 PBM z-score against 500 random probes
B10	-0.19 PBM z-score against 500 random probes
B11	0.24 PBM z-score against 500 random probes
B2	0.05 PBM z-score against 500 random probes
B12	-0.63 PBM z-score against 500 random probes
B13	-0.03 PBM z-score against 500 random probes
B14	-0.81 PBM z-score against 500 random probes
B15	-0.61 PBM z-score against 500 random probes
B3	0.25 PBM z-score against 500 random probes
B16	-0.25 PBM z-score against 500 random probes
B17	0.15 PBM z-score against 500 random probes
B18	-0.69 PBM z-score against 500 random probes
B19	-0.32 PBM z-score against 500 random probes
B20	-0.46 PBM z-score against 500 random probes
B4	-1.08 PBM z-score against 500 random probes
B21	-0.4 PBM z-score against 500 random probes
B5	6.86 PBM z-score against 500 random probes
B22	7.1 PBM z-score against 500 random probes
B23	-0.9 PBM z-score against 500 random probes
B24	0.38 PBM z-score against 500 random probes
B25	6.61 PBM z-score against 500 random probes
B26	0.31 PBM z-score against 500 random probes
B27	8.13 PBM z-score against 500 random probes
B6	-0.36 PBM z-score against 500 random probes

molecular target: PPARa:RXRa (Homo sapiens, UniProt Q07869;P19793 full;full); test: as above; settings: tags: GST kept;His cleaved; copies: 1;1; label: surface-attached array probe
Outline: as §1

PPARa:RXRa, sequence (Q07869 whole entry, chain 1 of 2): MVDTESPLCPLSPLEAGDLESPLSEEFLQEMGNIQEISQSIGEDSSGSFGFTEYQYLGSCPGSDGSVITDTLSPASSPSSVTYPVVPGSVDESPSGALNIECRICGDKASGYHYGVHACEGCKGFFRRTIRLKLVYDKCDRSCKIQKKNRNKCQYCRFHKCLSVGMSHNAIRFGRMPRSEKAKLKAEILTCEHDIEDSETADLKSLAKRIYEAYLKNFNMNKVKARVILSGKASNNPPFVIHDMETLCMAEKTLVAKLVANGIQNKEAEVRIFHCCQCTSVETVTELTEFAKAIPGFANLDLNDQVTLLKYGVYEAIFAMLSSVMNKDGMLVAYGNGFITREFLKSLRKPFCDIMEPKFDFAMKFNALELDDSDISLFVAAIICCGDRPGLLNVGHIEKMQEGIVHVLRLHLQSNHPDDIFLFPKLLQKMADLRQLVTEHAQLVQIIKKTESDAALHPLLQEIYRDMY
PPARa:RXRa, sequence (P19793 whole entry, chain 2 of 2): as the sequence (P19793 whole entry) above

Binder	binding signal
B3	0.24 PBM z-score against 500 random probes
B17	-0.15 PBM z-score against 500 random probes
B18	-0.62 PBM z-score against 500 random probes
B5	6.5 PBM z-score against 500 random probes
B22	6.67 PBM z-score against 500 random probes

molecular target: FXR:RXRa (Homo sapiens, UniProt Q96RI1;P19793 full;full); test: as above; settings: tags: His kept;His cleaved; copies: 1;1; label: surface-attached array probe
Outline: as §1

FXR:RXRa, sequence (Q96RI1 whole entry, chain 1 of 2): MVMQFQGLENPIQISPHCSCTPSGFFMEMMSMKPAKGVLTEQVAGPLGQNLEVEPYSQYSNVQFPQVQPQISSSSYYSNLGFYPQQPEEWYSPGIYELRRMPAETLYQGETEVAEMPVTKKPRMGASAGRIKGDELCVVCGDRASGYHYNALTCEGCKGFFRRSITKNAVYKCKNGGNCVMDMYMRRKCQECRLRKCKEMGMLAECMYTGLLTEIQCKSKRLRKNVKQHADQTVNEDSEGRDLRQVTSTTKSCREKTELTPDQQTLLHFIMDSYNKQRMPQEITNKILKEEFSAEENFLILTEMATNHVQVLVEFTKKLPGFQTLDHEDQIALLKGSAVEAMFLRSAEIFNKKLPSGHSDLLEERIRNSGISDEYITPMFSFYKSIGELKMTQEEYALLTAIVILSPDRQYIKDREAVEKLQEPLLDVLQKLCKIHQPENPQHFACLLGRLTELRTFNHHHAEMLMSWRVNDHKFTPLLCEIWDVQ
FXR:RXRa, sequence (P19793 whole entry, chain 2 of 2): as the sequence (P19793 whole entry) above

Binder	binding signal
B10	-0.16 PBM z-score against 500 random probes
B12	-0.63 PBM z-score against 500 random probes
B5	7.82 PBM z-score against 500 random probes
B25	8.14 PBM z-score against 500 random probes
B26	0.23 PBM z-score against 500 random probes

molecular target: RARg:RXRa (Homo sapiens, UniProt P13631;P19793 full;full); test: as above; settings: tags: His kept;His cleaved; copies: 1;1; label: surface-attached array probe
Outline: as §1

RARg:RXRa, sequence (P13631 whole entry, chain 1 of 2): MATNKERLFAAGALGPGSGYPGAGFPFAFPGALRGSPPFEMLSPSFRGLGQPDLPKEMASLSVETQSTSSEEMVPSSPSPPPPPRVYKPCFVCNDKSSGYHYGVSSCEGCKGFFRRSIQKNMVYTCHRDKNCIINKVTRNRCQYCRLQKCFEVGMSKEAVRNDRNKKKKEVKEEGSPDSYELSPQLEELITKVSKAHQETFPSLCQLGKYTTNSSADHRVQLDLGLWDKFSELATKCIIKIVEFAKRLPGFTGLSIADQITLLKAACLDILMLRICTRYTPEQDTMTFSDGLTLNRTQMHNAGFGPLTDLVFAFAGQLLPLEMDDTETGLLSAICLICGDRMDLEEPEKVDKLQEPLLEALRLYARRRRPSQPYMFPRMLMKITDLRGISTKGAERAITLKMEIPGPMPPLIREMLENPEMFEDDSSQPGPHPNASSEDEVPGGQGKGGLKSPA
RARg:RXRa, sequence (P19793 whole entry, chain 2 of 2): as the sequence (P19793 whole entry) above

Binder	binding signal
B1	-0.94 PBM z-score against 500 random probes
B27	4.2 PBM z-score against 500 random probes
